Results as given in article PMC6584995, “Disruption of an amino acid transporter LHT1 leads to growth inhibition and low yields in rice” (BMC Plant Biology, 2019).

Substrate: NC(=O)C[C@H](N)C(=O)O
Assay: two-electrode voltage clamp in Xenopus oocytes, Asn-induced currents
Format: cell-based, Oryza sativa
Details: pH 5.4 (Tris/MES), currents at -140 mV, holding potential -40 mV, transport

B1: OsLHT1 (Oryza sativa Japonica Group) (protein)
chain: MGTQVADNYPPAKDGRSAQEKAIDDWLPITSSRNAKWWYSAFHNVTAMVGAGVLSLPYAMSELGWGPGIAVLILSWIITLYTLWQMVEMHEMVPGKRFDRYHELGQHAFGEKLGLWIVVPQQLVVEVGVNIVYMVTGGKSLKKFHDVLCEGHGCKNIKLTYFIMIFASVHFVLSQLPNFNSISGVSLAAAVMSLSYSTIAWGASVDKGKVADVDYHLRATTSTGKVFGFFSALGDVAFAYAGHNVVLEIQATIPSTPEKPSKKPMWKGVVVAYIIVALCYFPVALVGYWAFGNHVDDNILITLSRPKWLIALANMMVVIHVIGSYQIYAMPVFDMIETVLVKKLRFPPGLTLRLIARTLYVAFTMFIAITFPFFGGLLGFFGGFAFAPTTYFLPCIMWLAIYKPRRFSLSWFTNWICIILGVMLMILSPIGGLRQIIIDAKTYKFYS
- Km: 583 ± 51 µM
